This note sets out measurements from patent US20100166722A1.

The target in assay [1] is biotinylated cognate NY-ESO peptide-HLA-A*0201 complex. The assay is described as follows: SPR (Biacore 3000), soluble TCR over immobilised biotinylated pMHC. In general terms: SPR reads the build-up and loss of mass on a sensor chip optically.
In assay [2] the target is cognate NY-ESO peptide-MHC presented on peptide-pulsed APCs. The experiment in a line: cell-based or functional assay.

In the case of “soluble disulfide-linked wild-type 1G4 NY-ESO TCR”, in assay [1], the Half-live (T½) is 2.2 s. “full-length wild-type 1G4 NY-ESO TCR expressed on transfected T cells” came in with an IFN-γ release ELISA, CD4+ T cells; peptide pulsing level needed for a significant response in assay [2] of over 10 nM.
